Test results as given in IntAct's records for PubMed 17919502.

B1: Copper-transporting ATPase 2 (Homo sapiens), P35670 (parent)
chain: MPEQERQITAREGASRKILSKLSLPTRAWEPAMKKSFAFDNVGYEGGLDGLGPSSQVATSTVRILGMTCQSCVKSIEDRISNLKGIISMKVSLEQGSATVKYVPSVVCLQQVCHQIGDMGFEASIAEGKAASWPSRSLPAQEAVVKLRVEGMTCQSCVSSIEGKVRKLQGVVRVKVSLSNQEAVITYQPYLIQPEDLRDHVNDMGFEAAIKSKVAPLSLGPIDIERLQSTNPKRPLSSANQNFNNSETLGHQGSHVVTLQLRIDGMHCKSCVLNIEENIGQLLGVQSIQVSLENKTAQVKYDPSCTSPVALQRAIEALPPGNFKVSLPDGAEGSGTDHRSSSSHSPGSPPRNQVQGTCSTTLIAIAGMTCASCVHSIEGMISQLEGVQQISVSLAEGTATVLYNPSVISPEELRAAIEDMGFEASVVSESCSTNPLGNHSAGNSMVQTTDGTPTSVQEVAPHTGRLPANHAPDILAKSPQSTRAVAPQKCFLQIKGMTCASCVSNIERNLQKEAGVLSVLVALMAGKAEIKYDPEVIQPLEIAQFIQDLGFEAAVMEDYAGSDGNIELTITGMTCASCVHNIESKLTRTNGITYASVALATSKALVKFDPEIIGPRDIIKIIEEIGFHASLAQRNPNAHHLDHKMEIKQWKKSFLCSLVFGIPVMALMIYMLIPSNEPHQSMVLDHNIIPGLSILNLIFFILCTFVQLLGGWYFYVQAYKSLRHRSANMDVLIVLATSIAYVYSLVILVVAVAEKAERSPVTFFDTPPMLFVFIALGRWLEHLAKSKTSEALAKLMSLQATEATVVTLGEDNLIIREEQVPMELVQRGDIVKVVPGGKFPVDGKVLEGNTMADESLITGEAMPVTKKPGSTVIAGSINAHGSVLIKATHVGNDTTLAQIVKLVEEAQMSKAPIQQLADRFSGYFVPFIIIMSTLTLVVWIVIGFIDFGVVQRYFPNPNKHISQTEVIIRFAFQTSITVLCIACPCSLGLATPTAVMVGTGVAAQNGILIKGGKPLEMAHKIKTVMFDKTGTITHGVPRVMRVLLLGDVATLPLRKVLAVVGTAEASSEHPLGVAVTKYCKEELGTETLGYCTDFQAVPGCGIGCKVSNVEGILAHSERPLSAPASHLNEAGSLPAEKDAVPQTFSVLIGNREWLRRNGLTISSDVSDAMTDHEMKGQTAILVAIDGVLCGMIAIADAVKQEAALAVHTLQSMGVDVVLITGDNRKTARAIATQVGINKVFAEVLPSHKVAKVQELQNKGKKVAMVGDGVNDSPALAQADMGVAIGTGTDVAIEAADVVLIRNDLLDVVASIHLSKRTVRRIRINLVLALIYNLVGIPIAAGVFMPIGIVLQPWMGSAAMAASSVSVVLSSLQLKCYKKPDLERYEAQAHGHMKPLTASQVSVHIGMDDRWRDSPRATPWDQVSYVSQVSLSSLTSDKPSRHSAAADDDGDKWSLLLNGRDEEQYI

Variants of: B1
Conditions: with comd1_human COMMD1, Q8N668
Sequence of comd1_human COMMD1, Q8N668 (Q8N668 whole entry): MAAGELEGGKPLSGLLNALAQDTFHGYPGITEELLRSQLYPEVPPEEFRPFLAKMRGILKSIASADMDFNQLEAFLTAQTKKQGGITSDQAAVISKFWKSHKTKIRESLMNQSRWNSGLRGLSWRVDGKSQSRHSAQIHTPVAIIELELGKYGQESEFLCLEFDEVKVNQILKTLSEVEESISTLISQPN

effect of a mutation on the interaction	Variant
with no effect	L641S
increasing interaction strength	R616W
increasing interaction strength	R616Q
decreasing interaction strength	A604P
decreasing interaction strength	D642H
increasing interaction strength	Y532H
decreasing interaction strength	M645R
increasing interaction strength	G591D
decreasing interaction strength	G626A
increasing interaction strength	G515V
increasing interaction strength	E541K

The remaining lines, values behind:

Variant	effect of a mutation on the interaction
G170V	increasing interaction strength
A486S	increasing interaction strength
G284V	increasing interaction strength
G85V	increasing interaction strength
L492S	with no effect
G386V	increasing interaction strength
N41S	increasing interaction strength
